B1: Kisspeptin-54 (peptide)
peptide: GTSLSPPPESSGSPQQPGLSAPHSRQIPAPQGAVLVQREKDLPNYNWNSFGLRF
modifications: C-terminal amide (-NH2)

How the values were obtained:
[1] = target: GPR54 G-Protein coupled receptor (cloned human GPR54) (human) (UniProt Q969F8); assay: cell-based or functional assay
[2] = target: human µ opioid receptor (human), P35372; assay: radioligand competition with [3H]naloxone (5 nM), membranes of CHO-K1 cells with recombinant human µ opioid receptor; Ki by Cheng-Prusoff
[3] = target: human µ opioid receptor (human), P35372; assay: as above; remark: listed apart in the source
[4] = target: human µ opioid receptor (human), P35372; assay: radioligand competition with [3H]naloxone (5 nM), membranes of CHO-K1 cells with recombinant human µ opioid receptor; Ki by Cheng-Prusoff; sample pre-incubated 72 h at 37 C, pH 7.5
[5] = target: human µ opioid receptor (human), P35372; assay: radioligand competition with [3H]naloxone (5 nM), membranes of CHO-K1 cells with recombinant human µ opioid receptor; Ki by Cheng-Prusoff; sample diluted on the day of the assay (unreleased)
[6] = target: human µ opioid receptor (human), P35372; assay: radioligand competition with [3H]naloxone (5 nM), membranes of CHO-K1 cells with recombinant human µ opioid receptor; Ki by Cheng-Prusoff; sample pre-incubated 72 h at 37 C, pH 7.5 (partly released biphalin)
[7] = target: human µ opioid receptor (human), P35372; assay: radioligand competition with [3H]naloxone (5 nM), membranes of CHO-K1 cells with recombinant human µ opioid receptor; Ki by Cheng-Prusoff; sample pre-incubated 20 h at 37 C, pH 7.5 (partly released biphalin)

Sequence of human µ opioid receptor (human), P35372 (P35372 whole entry): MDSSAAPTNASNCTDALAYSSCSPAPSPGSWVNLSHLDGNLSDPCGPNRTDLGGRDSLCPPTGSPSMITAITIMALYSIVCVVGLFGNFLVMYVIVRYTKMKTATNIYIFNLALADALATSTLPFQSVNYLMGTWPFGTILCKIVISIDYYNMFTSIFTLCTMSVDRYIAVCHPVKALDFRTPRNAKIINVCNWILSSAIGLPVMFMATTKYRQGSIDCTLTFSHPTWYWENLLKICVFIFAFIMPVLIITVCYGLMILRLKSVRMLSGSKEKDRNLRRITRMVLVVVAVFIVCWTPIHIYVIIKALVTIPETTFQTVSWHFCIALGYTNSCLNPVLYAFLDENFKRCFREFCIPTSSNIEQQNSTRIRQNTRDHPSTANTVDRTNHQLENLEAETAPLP

Binder | EC50 (nM) of agonist activation at GPR54 (FLIPR calcium flux) [1] [nM] | Fold change compared to metastin [1] [fold] | Ki [5] [nM] | further results
LPNYNWNSFGLRF (C-terminal amide (-NH2)) [Kisspeptin-13] | 11 | 1 | – | –
B1 | 190 | 16 | – | –
YAGF (modifications not checked) [Biphalin] | – | – | – | Ki [2]: 3.4 nM; Ki [3]: 4.7 nM; Ki [4]: 3.1 nM
YAGF (modifications not checked) [Di-CAC-PEG2-FMOC-NHS-20K-biphalin] | – | – | 1120 | Ki [6]: 13.7 nM
YAGF (modifications not checked) [Di-C2-PEG2-FMOC-NHS-20K-biphalin] | – | – | 21.7 | Ki [7]: 10.1 nM
